Measured values: patent US20140287952A1 (ALDERBIO, published 2014)

Assays:
[1] = molecular target: T1, human PCSK9 (human, UniProt Q8NBP7 31-692, biotinylated in the ELISA (site not stated)); assay: ELISA: biotinylated human PCSK9 on Neutravidin plates, antibody dilution series, anti-human IgG Fc-HRP, OD450
T1 construct: Biotinylated and captured on Neutravidin plates in the ELISA; Used unlabelled at 3 ug/mL in the HepG2 LDL uptake assay; also called huPCSK9; biotinylated-PCSK9

[2] = molecular target: T1, human PCSK9; assay: cell-based or functional assay
[3] = molecular target: T2, human beta-NGF (human, UniProt P01138 122-241, limits assumed, biotinylated in the ELISA (site not stated)); assay: ELISA: biotinylated hu B-NGF on Neutravidin plates, antibody dilution series, anti-human IgG Fc-HRP, OD450
T2 construct: Biotinylated and captured on Neutravidin plates in the ELISA; Used unlabelled in the TF1 proliferation assay; also called hu B-NGF; huB-NGF
T2 sequence (P01138 122-241 limits assumed): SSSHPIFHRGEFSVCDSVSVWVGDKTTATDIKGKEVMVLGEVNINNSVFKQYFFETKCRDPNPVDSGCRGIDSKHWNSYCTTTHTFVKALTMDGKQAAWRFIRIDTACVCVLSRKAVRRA

[4] = molecular target: T3, human CGRP alpha (human, UniProt P06881 83-119, N-terminally or C-terminally biotinylated (the two ELISAs were run separately)); assay: ELISA: biotinylated human CGRP alpha on neutravidin plates (the sheet does not say whether N- or C-terminally biotinylated), antibody dilution series, OD450
T3 construct: Bought peptide; N- and C-terminally biotinylated forms were captured on neutravidin plates; also called HuCGRP alpha; CGRPα
T3 peptide (looked up): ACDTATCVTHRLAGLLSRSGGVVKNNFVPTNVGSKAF

T1 sequence (Q8NBP7 31-692 limits assumed): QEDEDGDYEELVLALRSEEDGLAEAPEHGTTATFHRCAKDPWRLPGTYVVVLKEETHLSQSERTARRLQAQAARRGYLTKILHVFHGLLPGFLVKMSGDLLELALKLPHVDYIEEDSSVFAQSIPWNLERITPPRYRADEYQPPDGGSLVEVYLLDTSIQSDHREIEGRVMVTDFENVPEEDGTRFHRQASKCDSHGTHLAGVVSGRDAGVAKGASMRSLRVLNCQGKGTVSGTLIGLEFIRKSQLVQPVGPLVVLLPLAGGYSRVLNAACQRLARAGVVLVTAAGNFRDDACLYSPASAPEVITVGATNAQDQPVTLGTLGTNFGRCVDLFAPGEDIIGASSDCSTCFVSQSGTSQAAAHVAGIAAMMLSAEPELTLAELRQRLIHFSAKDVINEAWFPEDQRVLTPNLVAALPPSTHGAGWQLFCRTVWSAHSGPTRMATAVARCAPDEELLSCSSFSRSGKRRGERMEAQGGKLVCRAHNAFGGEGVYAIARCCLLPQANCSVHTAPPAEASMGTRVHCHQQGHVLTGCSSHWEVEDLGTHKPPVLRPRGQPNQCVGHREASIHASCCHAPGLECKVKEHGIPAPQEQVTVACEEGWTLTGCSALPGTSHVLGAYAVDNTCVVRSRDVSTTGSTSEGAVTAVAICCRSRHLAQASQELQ

B1: Ab2 (antibody, V domains shown)
VH: SVEESGGRLVTPGTPLTLTCTVSGFSLSSYAMSWVRQAPGKGLEWIGIIDAIDNTYYASWAKGRFTISKTSTTVDLKMTSLTTGDTATYFCARASILGYSIATGFNIWGPGTLVTVSS
VL: AYDMTQTPASVEVAVGGTVTIKCQASQSISSHLAWYQQKSGQPPKLLIYRASTLESGVSSRFKGSGSGTEFTLTISDLECADAATYYCQQGYGVSDVDNGFGGGTEVVVK
EC50 [1]: 0.174 nM | IC50; LDL uptake assay: BODIPY-LDL uptake (RFUs) by HepG2 cells, antibody pre-incubated with 3 µg/mL PCSK9; RFUs rise with the antibody concentration [2]: 17.3 nM

B2: Ab7 (antibody, V domains shown)
VH: QEQLKESGGRLVTPGTPLTLTCTVSGFSLSSYAMIWVRQAPGKGLEYIGYIDTDTSAYYASWVKGRFTISRTSTTVDLKITSPTTEDTATYFCARSYAAYGGYPATFDPWGPGTLVTVSS
VL: DVVMTQTPASVSQPVGGTVTIKCQASEDIYNLLAWYQQKPGQPPKLLIYSASTLASGVPSRFKGSGSGTEYTLTISGLECADAATYYCQNNYLVTTYGVAFGGGTEVVVK
EC50 [3]: 0.182 nM

B3: Ab3 (antibody, V domains shown)
VH: EVQLVESGGGLVQPGGSLRLSCAVSGLDLSSYYMQWVRQAPGKGLEWVGVIGINDNTYYASWAKGRFTISRDNSKTTVYLQMNSLRAEDTAVYFCARGDIWGQGTLVTVSS
VL: QVLTQSPSSLSASVGDRVTINCQASQSVYDNNYLAWYQQKPGKVPKQLIYSTSTLASGVPSRFSGSGSGTDFTLTISSLQPEDVATYYCLGSYDCSSGDCFVFGGGTKVEIKR
EC50 [4]: 0.127 nM

B4: Ab4 (antibody, V domains shown)
VH: QSLEESGGRLVTPGTPLTLTCSVSGIDLSGYYMNWVRQAPGKGLEWIGVIGINGATYYASWAKGRFTISKTSSTTVDLKMTSLTTEDTATYFCARGDIWGPGTLVTVSS
VL: QVLTQTPSPVSAAVGSTVTINCQASQSVYHNTYLAWYQQKPGQPPKQLIYDASTLASGVPSRFSGSGSGTQFTLTISGVQCNDAAAYYCLGSYDCTNGDCFVFGGGTEVVVKR
EC50 [4]: 0.159 nM

B5: Ab8 (antibody, V domains shown)
VH: QVQLVESGGGVVQPGRSLRLSCAASGFTFSSYAMIWVRQAPGKGLEYIGYIDTDTSAYYASSVKGRFTISRDNSKNTLYLQMSSLRAEDTAVYYCARSYAAYGGYPATFDPWGQGTLVTVSS
VL: DIQMTQSPSSLSASVGDRVTITCQASEDIYNLLAWYQQKPGKVPKLLIYSASTLASGVPSRFSGSGSGTDYTLTISSLQPEDVATYYCQNNYLVTTYGVAFGGGTKVEIK
EC50 [3]: 0.254 nM
